Target: Taggert virus (TAGV) viral ovarian tumor domain protease (vOTU) (Taggert virus (TAGV))
Assay: ITC

“ubiquitin (Ub), wild type (from UniProt P0CG48 1-76) (natural protein)” showed a dH of -4.68 kcal/mol and a stoichiometry N of 1.34 sites.

Reference: publication PMC6343935
